The record followed here is publication PMC3392930 (The Journal of Cell Biology, 2012).

The stoichiometry N is a count of units in the complex or per binding partner.

Read-outs that look alike come from different tables or passages of the source.

For series [1], the target named is S-tagged RSP3_(1–160) (Chlamydomonas reinhardtii) (UniProt P12759). In words: pull-down.
Series [2] concerns the molecule itself. Nature of the series: cross-linking.
Series [3] deals with the molecule itself. In words: cross-linking. This is another data set of the same source.

For the molecule His-tagged LC8 (natural protein), the stoichiometry N (LC8 per RSP3 (1–160)) in series [1] amounted to 3.

B1: RSP3_(1–170)-Cys (domain or fragment, Chlamydomonas reinhardtii, UniProt P12759 1-170, looked up)
chain: MVQAKAQQQLYTHAAEPKAVQQRRAKYREDETTQTLPTANIMFDRRVVRGNTYAARILPADATQTQTKGPSPASTKKRTTRTLPPRTPEAVDGRRHIDIQTDVYLEELTDTVPEADTSTQTDAFLDRPPTPLFVPQKTGTDAITQIENGDLFDFDFEVEPILEVLVGKVL
For B1, the “stoichiometry N” value in the series “cross-linking [2]” came to 2.

B2: RSP3_(1–170)-HAHis (domain or fragment, Chlamydomonas reinhardtii, UniProt P12759 1-170, looked up)
chain: MVQAKAQQQLYTHAAEPKAVQQRRAKYREDETTQTLPTANIMFDRRVVRGNTYAARILPADATQTQTKGPSPASTKKRTTRTLPPRTPEAVDGRRHIDIQTDVYLEELTDTVPEADTSTQTDAFLDRPPTPLFVPQKTGTDAITQIENGDLFDFDFEVEPILEVLVGKVL
As for B2, in the series “cross-linking [3]”, the “stoichiometry N” value was 2.
